Reference: patent US20200377595A1 (Chugai, published 2020)
Residue numbers refer to the chain shown, from its start. Values belong to the binder of their own block, whether it stands above or below them.

Assays:
[1] = target: biotinylated CD3 epsilon epitope peptide; experiment: SPR, one-arm Ab
[2] = target: T1, biotin-labeled cynomolgus monkey CD137 fused to human IgG1 Fc fragment (cynomolgus monkey; human, UniProt Q07011 24-186, limits assumed, biotin-labeled); experiment: ELISA, IgG
T1 construct: also called cyno CD137-Fc; not shown: human IgG1 Fc fragment
T1 chain: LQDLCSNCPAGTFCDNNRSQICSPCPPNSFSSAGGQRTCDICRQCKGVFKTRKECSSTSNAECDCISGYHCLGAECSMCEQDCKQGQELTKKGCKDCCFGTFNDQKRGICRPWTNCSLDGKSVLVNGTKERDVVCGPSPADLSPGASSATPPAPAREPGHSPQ

Kd [1]: 26 nM
B5: NNS6f73 (antibody)
chain 1: QVQLVESGGGLVQPGRSLRLSCAASGFTFSNAWMHWVRQAPGKGLEWVAQIKDKSNNYATYYAESVKGRFTISRDDSKNSIYLQMNSLKTEDTAVYYCRYVHYAAWVVGVRYYGVDAWGQGTTVTVSSASTKGPSVFPLAPSSKSTSGGTAALGCLVKDYFPEPVTVSWNSGALTSGVHTFPAVLQSSGLYSLSSVVTVPSSSLGTQTYICNVNHKPSNTKVDKKVEPKSCDKTHTCPPCPAPEAAGGPSVFLFPPKPKDTLMISRTPEVTCVVVDVSHEDPEVKFNWYVDGVEVHNAKTKPREEQYASTYRVVSVLTVLHQDWLNGKEYKCKVSNKALPAPIEKTISKAKGQPREPQVYTLPPSRCELTKNQVSLSCAVKGFYPSDIAVEWESNGQPENNYKTTPPVLDSDGSFFLVSKLTVDKSRWQQGNVFSCSVMHEALHNHYTQKSLSLSPDYKDDDDK
chain 2: EPKSSDKTHTCPPCPAPELLGGPSVFLFPPKPKDTLMISRTPEVTCVVVDVSHEDPEVKFNWYVDGVEVHNAKTKPREEQYNSTYRVVSVLTVLHQDWLNGKEYKCKVSNKALPAPIEKTISKAKGQPREPQVCTLPPSRDELTKNQVSLWCLVKGFYPSDIAVEWESNGQPENNYKTTPPVLDSDGSFFLYSKLTVDKSRWQQGNVFSCSVMHEALHNRYTQKSLSLSP
chain 3: DIVMTQSPLSLPVTPGEPASISCRSSQSLVHSNRNTYLHWYQQKPGQAPRLLIYKVSNRFSGVPDRFSGSGSGTDFTLKISRVEAEDVGVYYCGQGTQVPYTFGQGTKLEIKRTVAAPSVFIFPPSDEQLKSGTASVVCLLNNFYPREAKVQWKVDNALQSGNSQESVTEQDSKDSTYSLSSTLTLSKADYEKHKVYACEVTHQGLSSPVTKSFNRGEC

Kd [1]: 36 nM
B8: NNS6f67 (antibody)
chain 1: B5 chain 1 with W106G, V107L, V108L, G109R, V110A, R111A
chain 2: B5 chain 2
chain 3: B5 chain 3

Kd [1]: 45 nM
B13: NNS6f68 (antibody)
chain 1: B5 chain 1 with W106V, V107E, V108W, V110R, R111W
chain 2: B5 chain 2
chain 3: B5 chain 3

Kd [1]: 51 nM
B17: NNS6f71 (antibody)
chain 1: B5 chain 1 with W106G, V107W, G109L, V110G, R111S
chain 2: B5 chain 2
chain 3: B5 chain 3

Kd [1]: 150 nM
B19: NNS6f72 (antibody)
chain 1: B5 chain 1 with W106E, V107G, V108I, G109W, V110W, R111G
chain 2: B5 chain 2
chain 3: B5 chain 3

binding result [2]: binds
B21: dBBDu179 (antibody, IgG1, V domains shown)
VH: QVQLVESGGGLVQPGRSLRLSCAASGFTFSNAWMHWVRQAPGKGLEWVAQIKDRSNQYATYYAPSVKGRFTISRDDSKNSIYLQMNSLKTEDTAVYYCHYVHYASASTVLPAFGVDAWGQGTTVTVSS
VL: DIVMTQSPLSLPVTPGEPASISCRSSQSLVHSNRNTYLHWYQQKPGQAPRLLIYKVSNRFSGVPDRFSGSGSGTDFTLKISRVEAEDVGVYYCGQGTQVPYTFGQGTKLEIK
notes: IgG1

binding result [2]: binds
B22: dBBDu139 (antibody, IgG1, V domains shown)
VH: QVQLVESGGGLVQPGRSLRLSCAASGFTFSNAWMHWVRQAPGKGLEWVAQIKDRGNAYNAYYAESVKGRFTISRDDSKNSIYLQMNSLKTEDTAVYYCRFVHYRHPLLHIQYGVDAWGQGTTVTVSS
VL: B21 VL
notes: IgG1

binding result [2]: binds
B23: dBBDu183 (antibody, IgG1, V domains shown)
VH: B21 VH with R54K, S55G, Q57A, T60A
VL: B21 VL
notes: IgG1

binding result [2]: binds
B24: dBBDu193 (antibody, IgG1, V domains shown)
VH: B21 VH with A104S, S105A, V109L, A112S
VL: B21 VL
notes: IgG1

binding result [2]: binds
B25: dBBDu205 (antibody, IgG1, V domains shown)
VH: B21 VH with N56Q, Q57L, T60A
VL: B21 VL
notes: IgG1

binding result [2]: binds
B26: dBBDu196 (antibody, IgG1, V domains shown)
VH: B21 VH with S55G, Q57A, A59N, T60A, P64E
VL: B21 VL
notes: IgG1

binding result [2]: binds
B27: dBBDu173 (antibody, IgG1, V domains shown)
VH: B21 VH with R54K, S55G, Q57L, T60A, S107G, T108G, V109G, P111S, F113Y
VL: B21 VL
notes: IgG1

binding result [2]: binds
B28: dBBDu186 (antibody, IgG1, V domains shown)
VH: B21 VH with S105Q
VL: B21 VL
notes: IgG1

binding result [2]: binds
B29: dBBDu202 (antibody, IgG1, V domains shown)
VH: B21 VH with R54K, S55G, Q57A, T60A, A104S, S105A
VL: B21 VL
notes: IgG1

binding result [2]: binds
B30: dBBDu199 (antibody, IgG1, V domains shown)
VH: B21 VH with R54K, S55Q, N56S, Q57G, A59N
VL: B21 VL
notes: IgG1

binding result [2]: binds
B31: dBBDu167 (antibody, IgG1, V domains shown)
VH: B21 VH with R54K, S55G, Q57L, T60A, S107G, T108G, V109G, A112G
VL: B21 VL
notes: IgG1

binding result [2]: binds
B32: dBBDu204 (antibody, IgG1, V domains shown)
VH: B21 VH with Q57N, P64E
VL: B21 VL
notes: IgG1

binding result [2]: binds
B33: dBBDu189 (antibody, IgG1, V domains shown)
VH: B21 VH with V48I, S105Q, T108S, V109L, A112S
VL: B21 VL
notes: IgG1

binding result [2]: binds
B34: dBBDu222 (antibody, IgG1, V domains shown)
VH: QVQLVESGGGLVQPGRSLRLSCAASGFTISSAWMHWVRQAPGKGLEWVAQIKDRANGYAAYYAPSVKGRFTISRDDSKNSIYLQMNSLKTEDTAVYYCRYVHYATAYDGFYGFGVDAWGQGTTVTVSS
VL: B21 VL
notes: IgG1

Second part, the binder before the results:

B1: NNS6f27 (antibody)
chain 1: B5 chain 1 with W106V, V107W, V108G, G109S, R111W
chain 2: B5 chain 2
chain 3: B5 chain 3
Kd [1]: 38 nM

B2: NNS6f51 (antibody)
chain 1: B5 chain 1 with W106G, V107F, V108L, G109V, V110L, R111W
chain 2: B5 chain 2
chain 3: B5 chain 3
Kd [1]: 31 nM

B3: NNS6f59 (antibody)
chain 1: B5 chain 1 with W106L, V107L, G109Q, V110E, R111G
chain 2: B5 chain 2
chain 3: B5 chain 3
Kd [1]: 200 nM

B4: NNS6f62 (antibody)
chain 1: B5 chain 1 with W106N, V107G, V108G, G109T, V110R, R111H
chain 2: B5 chain 2
chain 3: B5 chain 3
Kd [1]: 61 nM

B6: NHS6f50 (antibody)
chain 1: B5 chain 1 with W106L, V107T, V108G, V110L, R111G
chain 2: B5 chain 2
chain 3: B5 chain 3
Kd [1]: 71 nM

B7: NNS6f56 (antibody)
chain 1: B5 chain 1 with W106R, V107E, V108A, G109T, V110R, R111W
chain 2: B5 chain 2
chain 3: B5 chain 3
Kd [1]: 21 nM

B9: NNS6f63 (antibody)
chain 1: B5 chain 1 with W106G, V107G, V108G, V110W, R111V
chain 2: B5 chain 2
chain 3: B5 chain 3
Kd [1]: 69 nM

B10: NNS6f64 (antibody)
chain 1: B5 chain 1 with W106L, V108S, G109L, V110T, R111V
chain 2: B5 chain 2
chain 3: B5 chain 3
Kd [1]: 78 nM

B11: NNS6f54 (antibody)
chain 1: B5 chain 1 with W106F, V107E, V108W, G109V, V110G, R111W
chain 2: B5 chain 2
chain 3: B5 chain 3
Kd [1]: 29 nM

B12: NNS6f58 (antibody)
chain 1: B5 chain 1 with W106S, V107W, V108Q, G109V, V110S
chain 2: B5 chain 2
chain 3: B5 chain 3
Kd [1]: 44 nM

B14: NHS6f52 (antibody)
chain 1: B5 chain 1 with W106Y, V107M, V108L, V110L, R111G
chain 2: B5 chain 2
chain 3: B5 chain 3
Kd [1]: 52 nM

B15: NHS6f29 (antibody)
chain 1: B5 chain 1 with W106I, V107Y, V108Y, G109P, V110T, R111N
chain 2: B5 chain 2
chain 3: B5 chain 3
Kd [1]: 90 nM

B16: NNS6f47 (antibody)
chain 1: B5 chain 1 with W106H, V107F, V108M, G109W, V110W, R111G
chain 2: B5 chain 2
chain 3: B5 chain 3
Kd [1]: 31 nM

B18: NNS6f55 (antibody)
chain 1: B5 chain 1 with W106A, V107G, V108R, G109W, V110L, R111A
chain 2: B5 chain 2
chain 3: B5 chain 3
Kd [1]: 31 nM

B20: dBBDu197 (antibody, IgG1, V domains shown)
VH: B21 VH with Q57A, T60A
VL: B21 VL
notes: IgG1
binding result [2]: binds
